Data taken from the supplement of paper PMC9170038.

Key:
MS2 coat protein [1] = test: apparent KD of MS2 coat protein, switch ON state; designed switch direction (-1 OFF switch, 1 ON switch): -1; higher = weaker reporter binding; settings: FMN input: 0 or 200 uM; Eterna round: R93 (includes R88 designs)
Outline: (§1)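 Designed RNA switches were transcribed on-chip from Illumina sequencing clusters. SNAP-549-labelled MS2 coat protein was titrated onto them in twofold steps from 0.7 or 1.5 nM to 3 µM in 100 mM Tris-HCl pH 7.5, 80 mM KCl, 4 mM MgCl2, either without or with constant ligand. Apparent KD reflects the per-design median of normalised cluster binding-curve fits.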

MS2 coat protein [2] = test: apparent KD of MS2 coat protein, switch OFF state (with FMN for OFF switches, without FMN for ON switches); designed switch direction (-1 OFF switch, 1 ON switch): -1; higher = weaker reporter binding; settings: FMN input: 0 or 200 uM; Eterna round: R93 (includes R88 designs)
Outline: as §1

Sequence	apparent KD of MS2 coat protein (MS2 coat protein [1]) [nM]	apparent KD of MS2 coat protein (MS2 coat protein [2]) [nM]
AAAAAUUGAGGAUAUACGUACAUGUCGAAAGACGUGAAGGGACAUGAGGAUCACCCAUGUAGAAGGCGAAAAAA [Mat - Exclusion 2 - JL mod - D73]	45.6	27.9
AAAACACAUGAGGAUCACCCAUGUGAGGAUAUGCGAGUGAAAAUAAAAAUAAAACAUAGCAGAAGGCACAAGGA [Amethyst 80]	35.9	45
AAAACACAUGAGGAUCACCCAUGUGAGGAUAUGCUAUGGAAAAUAAAAAUAAAACAUAGCAGAAGGCACAAAGG [Denovo 18]	32.9	244
AAAACGGUAGGAUAUACGAUUUGGUACUAGACCGAGGAACCACAUGAGGAUCACCCAUGUAGAAGGACCAAAAA [EX2 Malc#19]	13	14
AAAACGUGAGGAUAUACAUGAGGAUCACCCAUGUGAAACAGGAAAAACUGAAAGAAAAGUAGAAGGCACGAAAA [Tweaking Eli]	29	44.4
AAAACUCGAGGAUAUGCAAAAUGAUUGCGAAAGCAAUCAAAACAUGAGGAUCACCCAUGUAGAAGGCGAGAAAA [Mat - Mod of Eli]	23.5	13
AAAACUGGAGGAUAUACAUGAGGAUCACCCAUGUGUGGAUGAGCUGAAACGGCAUCACGUAGAAGGCCACAAAA [Gilly Gone Silly 40 - Jieux - Exclusion 3]	35.3	45.2
AAAACUGGAGGAUAUACAUGAGGAUCACCCAUGUGUGGAUGAGCUGUGUCGGCGUCAAGUAGAAGGCCACAAAA [Gilly Gone Silly 36 - Jieux - Exclusion 3]	36.7	43.1
AAAAGACAUGAGGAUCACCCAUGUGAGGAUAUGACGUAAAGAAAGAAAGAAGAAAUCGUCAGAAGGCACACCUA [Mat - Exclusion 1 - Eli mod - D68]	31.6	63.5
AAAAGCACAGGAUAUACAAAAAAAUGACGAAAGUCAUAGGGACAUGAGGAUCACCCAUGUAGAAGGGUGCAAAA [Mod of Meechl's... 64% 4]	197	440
AAAAGCUAAGGAUAUACAUGAGGAUCACCCAUGUAGAACAGUGUAUGGGUAAAGGCGCGUAGAAGGUAGAAAAG [Arbileat]	29.9	42.1
AAAAUACAUGAGGAUCACCCAUGUGAGGAUAUCGUAAAGAAAGUGAUCAAAAGAAAUACGAGAAGGCACAUAAA [PK3]	123	212
AAAAUGGCAGGAUAUACUAAAAUAAAAAACUAUGCUAAAACACAUGAGGAUCACCCAUGUAGAAGGGCCAAAAA [AJ 5]	26.2	18.8
AAACCACAUGAGGAUCACCCAUGUGAGGAUAUGAACGAAAUAAAAUAAAAAUAAAAGUUCAGAAGGCACAAAAA [Mat - Exclusion 1 - Eli mod - D14]	18.2	20.6
AAAGGACAUGAGGAUCACCCAUGUGAGGAUAUGACGUAAAUAAAGAAAGAAGAAAUCGUCAGAAGGCACACCUA [55%, Disencluded 2, 2]	40.7	45.1
AAAGGACAUGAGGAUCACCCAUGUGAGGAUAUGCGAAAAAAAAAAAUAAAAAAAAAAAGUAGAAGGCACACCAA [Mat - Exclusion 1 - Eli mod - D57]	99.4	128
AAAGGACGAGGAUAUACAUGAGGAUCACCCAUGUAAAAAACGUAAGAAAAGAAGUUAUGUAGAAGGCGUCCAAA [69%, Moding Meechl, 14]	15.5	20.6
AAAGGACGAGGAUAUACAUGAGGAUCACCCAUGUAAAAAGCGUAGUAAAAGAACUUAUGUAGAAGGCGUCCAAA [Meechl Ex3 2 R2 v3]	59.4	137
AAAGGAUCAGGAUAUGUGUGGAAAAAGUGUGUCCAAAAAAAACAUGAGGAUCACCCAUGUAGAAGGGAUCCAAA [Mod 4 of Normal (20/19) by Nando, Round 1]	222	260
AAAGGGUCAGGAUAUGUACGAACAACAAAACAAAUAACGAUACAGAAGGGACAUGAGGAUCACCCAUGUAUAAA [May 74]	55.8	70.6

Sequence	apparent KD of MS2 coat protein (MS2 coat protein [1]) [nM]	apparent KD of MS2 coat protein (MS2 coat protein [2]) [nM]
AAAGGGUCAGGAUAUGUACGAACAACAAAACAAAUAACGGUACAGAAGGGACAUGAGGAUCACCCAUGUAUAAA [May 73]	51.9	64.1
AAAGGUUGAGGAUAUGCGUGGAAAAAGUGUAUUCAAAAAAAACAUGAGGAUCACCCAUGUAGAAGGCGACCAAA [MS2 Riboswitches On Chip Exclusion 2 wbt3]	61.9	163
AAAUGCUGAGGAUAUACAUGAGGAUCACCCAUGUGAAAUAAAAAAUGUGUGUAAGCGUGUAGAAGGCAGCAUAA [Exclusion 3.12 (FMN+ favored)]	57.1	25.8
AAAUGUCUAGGAUAUACAUGAGGAUCACCCAUGUGUAAAAAUAAAUACACAAAAGAAAGUAGAAGGAGACAAAA [Ex 3 May 13]	22.4	47.3
AAAUUGUCAGGAUAUCGUAUAACAUGGAAAACAUGGAGAUACGAGAAGGGACAUGAGGAUCACCCAUGUAAAAC [May 95]	51.6	87.4
AACAAACAUGAGGAUCACCCAUGUAAGGAUAUGCAACAAAAACAAAAAACAAAAAAAAGCAGAAGGUACAACAA [Amethyst 99]	25.6	28.8
AACAAGACAGGAUAUACAUGAGGAUCACCCAUGUCACAAUAAAGUAGCGUAACACAAAGUAGAAGGGUCAUGGA [Ruby 8]	41.5	50.4
AACAGGACAGGAUAUACAUGAGGAUCACCCAUGUAGGAAACAAGCAGAGUACCAAAAAGUAGAAGGGUCAUGGA [Ruby 30]	38.8	63.3
AACAGGUCAGGAUAUGUGGAAAAAAUAAAAAAAAAUAAAACACAGAAGGGACAUGAGGAUCACCCAUGUAAAUA [Mat - Exclusion 4 - Mayanna - D142]	68.7	59.2
AACAGGUCAGGAUAUGUGUAAAAAAUAAAAAAAAUAUAAACACAGAAGGGACAUGAGGAUCACCCAUGUUAACA [May 26]	31.5	35.7
AACAGUACAGGAUAUACAUGAGGAUCACCCAUGUGAAAAGAAAGUGGCGUACCACAAAGUAGAAGGGUACUGAA [Mat - Exclusion 3 - JL mod - D29]	25.3	135
AACAGUACAGGAUAUACAUGAGGAUCACCCAUGUGAAAAUUAAGUGGAAAACCACAGUGUAGAAGGGUACUGGA [Mat - Exclusion 3 - Eli mod - D53]	47.5	191
AACAGUACAGGAUAUACAUGAGGAUCACCCAUGUGAAAAUUAAGUGGGAGACCACAAGGUAGAAGGGUACUGGA [Mat - Exclusion 3 - Eli mod - D65]	176	57.7
AACAGUACAGGAUAUACAUGAGGAUCACCCAUGUGAGAAUUAAGUGGCGUACCACAAAGUAGAAGGGUACUGAA [Mat - Exclusion 3 - JL mod - D6]	30.8	97.3
AACAGUACAGGAUAUACAUGAGGAUCACCCAUGUGAGAGAAAUAAAACAAAAAUAAAAGUAGAAGGGUACUGGA [Moding Maslow revisited (73) 22]	41.7	43.3
AACAUGUAAGGAUAUCAAAGAAAAGAAAAGAAAGAAAAGAAUGAGAAGGUACAUGAGGAUCACCCAUGUAAGAA [EteRNA is fun!]	27.9	21.1
AACAUGUAAGGAUAUGCUGCUCGUCACGAAAGUGAUGAGUAGCAGAAGGUACAUGAGGAUCACCCAUGUAAAGA	49	156
AACAUGUCAGGAUAUGUACGAAAAAAUAAAAAAAUAAAAGUACAGAAGGGACAUGAGGAUCACCCAUGUCAAAA [EX4 394: Minimal 7]	33.4	47.4
AACAUGUCAGGAUAUGUACGAAAAAAUAAAAAAAUAAAAGUACAGAAGGGACAUGAGGAUCACCCAUGUCAGGG [EX4 393: Minimal 6]	100	20
